The values below come from article PMC7215387, “Comparison of Target Recognition by TRAF1 and TRAF2” (International Journal of Molecular Sciences, 2020).

The target of assay [1] is T1, TRAF2 (Homo sapiens, UniProt Q12933).
T1 construct: TRAF2 TRAF domain (amino acid residues 305-501); 6xHis (C); made in house; host or cells: E. coli BL21 (DE3)
T1 sequence (Q12933 305-501): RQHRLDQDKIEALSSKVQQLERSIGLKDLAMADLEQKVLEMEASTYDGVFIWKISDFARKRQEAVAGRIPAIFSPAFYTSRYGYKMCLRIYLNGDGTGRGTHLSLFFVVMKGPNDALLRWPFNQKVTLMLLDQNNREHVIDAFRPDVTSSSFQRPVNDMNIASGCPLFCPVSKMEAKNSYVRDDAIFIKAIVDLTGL
Nature of the assay: Surface plasmon resonance (SPR), TRAF2. The class given is binding. Conditions: TRAF2 versus TRAF1. The protocol: (§1) The binding affinities between TRADD-N and TRAF1 or TRAF2 were further quantitatively analyzed using surface plasmon resonance (SPR) experiments (Figure 3a,b). For the SPR experiment, each purified 6xHis-tagged TRAF1 and TRAF2 was coupled to Ni-NTA sensor chips using a His-tag affinity system. Different concentrations of TRADD-N protein, from 0.39 to 3.125 μM, were analyzed for binding to TRAF1 or TRAF2. […] Given their interaction patterns and affinity differences in complex formation, we modeled the structure of the TRAF1:TRADD-N complex by docking TRADD-N to a previously solved TRAF1 structure based on the TRAF2:TRADD-N complex to better understand the affinity differences (Figure 3c,d). According to the previously determined structure of the TRAF2:TRADD-N complex, two distinct binding regions, Region I and II, were identified (Figure 3e). The specific residues from TRAF2 that contributed to the interaction in Region I were T401, H406, L471, and P474. The interaction-contributing residues on TRAF2 in Region II were D445, R448, P449, D450, S454 and G468. All residues in TRAF2 that participated in the interaction with TRADD-N were conserved in TRAF1, except for S454, which was replaced by alanine in TRAF1 (Figure 3f). The side chain of S454 in TRAF2 formed a stable hydrogen bond with the side chain of Q143 on TRADD-N and contributed to the stable interaction between these two proteins. […]

The target of assay [2] is TRAF2 S454A mutant. Nature of the assay: Isothermal titration calorimetry (ITC), TRAF2 S454A mutant. In kind it is binding. Conditions: Supplementary Figure S1. Here is the method: as §1, with “3f).” for “3f). The side chain of S454 in TRAF2 formed a stable hydrogen bond with the side chain of Q143 on TRADD-N and contributed to the stable interaction between these two proteins.”
A NanoITC (TA Instruments) was used for isothermal titration calorimetry experiments. […] Binding isotherms were analyzed by using the software provided by TA Instruments. […]

B1: TRADD-N: N-terminal domain of TRADD (TRADD-N, amino acid residues 1-163) (protein)
chain: MAAGQNGHEEWVGSAYLFVESSLDKVVLSDAYAHPQQKVAVYRALQAALAESGGSPDVLQMLKIHRSDPQLIVQLRFCGRQPCGRFLRAYREGALRAALQRSLAAALAQHSVPLQLELRAGAERLDALLADEERCLSCILAQQPDRLRDEELAELEDALRNLK
modifications: left off: His6 (from the vector pET24a), C-terminal, state not stated
Take B1: the “affinity of TRAF2 for TRADD-N relative to that of TRAF1” value in assay [1] is “four times higher”. Besides, the dissociation constant (Kd) in assay [2] is around 55 nM.
